The supplement of paper PMC9732359
± gives the uncertainty stated by the source.

Assay: protein stability index of a GFP-peptide fusion (yeast GPS) (PSI 1-4); higher = more stable; sorted into four equal gates, so the index is relative within each strain
In short: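 Tiled 17-residue yeast protein peptides were fused downstream of GFP in a plasmid that also expresses Cherry, and the pooled library was carried in yeast. Mid-log cultures in leucine-free medium were sorted into four equal gates by GFP/Cherry fluorescence ratio, and plasmids from each gate were PCR-amplified and Illumina-sequenced, with reads assigned to strains by barcodes. The protein stability index for each peptide was each gate's read frequency times its gate number, summed.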

Row | Sequence | protein stability index (doa10∆) | protein stability index (pdr5∆) | protein stability index (san1∆) | protein stability index (ubr1∆)
1 | VNHLLLFAREIAKSQDK [DPB4] | 2.06 ± 0.15 | 2.85 ± 0.16 | 2.76 ± 0.14 | 2.08 ± 0.068
2 | ADIENSTSGDPSEFHCL [SSN2] | 3.15 ± 0.18 | 3.31 ± 0.26 | 3.21 ± 0.12 | 3.29 ± 0.12
3 | NNRSVSMQTIAETIILS [SRB5] | 2.02 ± 0.052 | 1.91 ± 0.068 | 1.56 ± 0.07 | 1.84 ± 0.031
4 | QIVPYIEKLTDGHLRAP [BRR2] | 3.04 ± 0.052 | 3.1 ± 0.043 | 3.12 ± 0.037 | 3.15 ± 0.051
5 | YSVYLIHEIRLNTLNNV [SIR3] | 1.85 ± 0.089 | 1.99 ± 0.067 | 2.25 ± 0.1 | 2.34 ± 0.048
6 | VNEPTKNEEAEIEVDEM [RPN1] | 3.25 ± 0.17 | 3.22 ± 0.23 | 3.08 ± 0.14 | 3.45 ± 0.16
7 | NFGNNGAGGLNPFTSAT [YOR098C/NUP1] | 2.89 ± 0.055 | 3.21 ± 0.09 | 3.15 ± 0.045 | 3.04 ± 0.052
8 | QPVNFNRSWDHAYNITF [RPO31] | 2.13 ± 0.12 | 2.37 ± 0.055 | 2.39 ± 0.12 | 2.45 ± 0.047
9 | NSASNNGNLTSNQLISN [SWI1] | 1.96 ± 0.084 | 2.14 ± 0.078 | 2.45 ± 0.11 | 2.75 ± 0.056
10 | AQAQAQAQAQAQAAQAA [GAL11] | 2.91 ± 0.055 | 3.27 ± 0.045 | 3.258 ± 0.023 | 3.15 ± 0.057
11 | QRCKSNAISLQLKYDTS [YIL149C/MLP2] | 1.78 ± 0.062 | 1.66 ± 0.054 | 1.86 ± 0.12 | 1.79 ± 0.047
12 | APSGIRMHLAPASKQGY [SSN2] | 2.24 ± 0.17 | 2.48 ± 0.11 | 2.22 ± 0.13 | 2.36 ± 0.097
13 | AGTKITICIELKTVLHN [RGR1] | 1.18 ± 0.062 | 1.32 ± 0.07 | 1.39 ± 0.13 | 1.49 ± 0.09
14 | DDVISNAGTNDNSFNEL [MCD1] | 3.31 ± 0.15 | 3.37 ± 0.12 | 3.31 ± 0.06 | 3.44 ± 0.084
15 | QEAVNSLKGYKIENSVQ [CSI1] | 3.2 ± 0.13 | 3.29 ± 0.079 | 3.32 ± 0.051 | 3.39 ± 0.073
16 | RSRNGGATKIVREHYLR [DIS3] | 3.21 ± 0.073 | 3.36 ± 0.083 | 3.36 ± 0.081 | 3.2 ± 0.099
17 | NKLSGILADEMGLGKTL [ISW2] | 3.1 ± 0.088 | 3.23 ± 0.13 | 3.15 ± 0.049 | 2.68 ± 0.096
18 | KRELLKRYRLKESQLPR [RPB5] | 3.19 ± 0.2 | 3.29 ± 0.14 |  | 3.58 ± 0.14
19 | TQVALNESEKDQWLEEY [UBP6] | 3 ± 0.1 | 2.55 ± 0.07 | 2.66 ± 0.077 | 2.88 ± 0.055
20 | IAATAVASLVLARGHRV [RPL4A] | 2.6 ± 0.22 | 1.93 ± 0.19 | 2.08 ± 0.24 | 1.93 ± 0.09
21 | VSNPIRKVFKPSQGMVV [FAS1] | 3.08 ± 0.068 | 2.74 ± 0.061 | 2.87 ± 0.14 | 2.66 ± 0.068
22 | FNFFEPIKEAKIKHGSV [YMR129W/POM152] | 2.7 ± 0.054 | 2.89 ± 0.056 | 2.54 ± 0.065 | 2.83 ± 0.046
23 | TAGNWVASQTVKKVIEI [PRE2] | 3.18 ± 0.12 | 3.35 ± 0.084 | 2.77 ± 0.069 | 3.23 ± 0.081
24 | SSDDRVKVLAATNRVDV [RPT5] | 2.66 ± 0.18 | 2.95 ± 0.26 | 2.88 ± 0.15 | 
25 | SNTMYSVRLFSFLDPLN [YJL039C/NUP192] | 1.41 ± 0.048 | 1.48 ± 0.061 | 1.83 ± 0.063 | 1.69 ± 0.059

Row | Sequence | protein stability index (doa10∆) | protein stability index (pdr5∆) | protein stability index (san1∆) | protein stability index (ubr1∆)
26 | AIQKKDNKDKEGNAGGD [YOR098C/NUP1] | 3.44 ± 0.17 | 3.32 ± 0.18 | 3.25 ± 0.1 | 3.44 ± 0.11
27 | PSPPNVIITDGTLLRED [YDL088C/ASM4] | 2.71 ± 0.036 | 2.81 ± 0.041 | 2.97 ± 0.045 | 2.91 ± 0.034
28 | ININEFALPAGSPKSAT [CDC53] | 2.71 ± 0.067 | 2.76 ± 0.053 | 2.64 ± 0.07 | 2.73 ± 0.04
29 | LRPGRIDRKVEFSLPDL [RPT1] | 3.19 ± 0.098 | 3.35 ± 0.098 | 3.2 ± 0.16 | 3.18 ± 0.098
30 | GNILDFNLNLPPSSFGR [REC8] | 3.04 ± 0.075 | 3.24 ± 0.15 | 3.03 ± 0.055 | 2.94 ± 0.1
31 | LEGTRVSLEERTKNLVS [SMC4] | 3.45 ± 0.09 | 3.42 ± 0.075 | 3.34 ± 0.048 | 3.35 ± 0.08
32 | QNSLLTNTHPNFLSKIR [SNF2] | 2.96 ± 0.073 | 2.92 ± 0.075 | 3.01 ± 0.07 | 2.94 ± 0.047
33 | SPAGKYKRQKSSLLYTY [ESC2] | 1.24 ± 0.056 | 1.39 ± 0.067 | 1.17 ± 0.11 | 1.16 ± 0.06
34 | GIFNLLNTLFNPVTLNE [NUT1] | 2.52 ± 0.051 | 1.93 ± 0.052 | 1.87 ± 0.075 | 1.92 ± 0.048
35 | ILTIIEEYKKSLYAYCH [GRR1] | 2.38 ± 0.28 | 1.33 ± 0.21 | 2.27 ± 0.26 | 3.38 ± 0.24
36 | MKYIQTEQQIEVPEGVT [RPL9A] | 2.54 ± 0.089 | 2.75 ± 0.082 | 2.83 ± 0.11 | 2.77 ± 0.053
37 | EINSVGNPGLPQYQYQR [ITC1] | 2.66 ± 0.11 | 2.59 ± 0.077 | 2.92 ± 0.057 | 3.16 ± 0.067
38 | ENRFQDTLLLLPTDGGL [POP4] | 1.46 ± 0.096 | 2.12 ± 0.085 | 1.77 ± 0.11 | 2.44 ± 0.082
39 | QDIKKAKRVENFNSSAP [DSN1] | 3.31 ± 0.1 | 3.44 ± 0.085 | 3.02 ± 0.16 | 3.42 ± 0.06
40 | DDTAANNGDKDHLKLVS [YIL149C/MLP2] | 3.25 ± 0.12 | 3.35 ± 0.11 | 2.81 ± 0.12 | 3.2 ± 0.087
41 | FSRRFDCRDVYCHEKEL [CSN9] |  |  |  | 2.99 ± 0.19
42 | LAALNVWYGLSDGEDGH [SSN2] | 3.19 ± 0.12 | 3.39 ± 0.11 | 3.04 ± 0.067 | 3.12 ± 0.077
43 | FDGFLFGSRVMIAKEVK [FAS1] | 2.58 ± 0.15 | 1.56 ± 0.18 |  | 2.55 ± 0.074
44 | TDRLSTTQRRYEKAQKD [SMC1] | 3.33 ± 0.14 | 3.23 ± 0.095 | 2.63 ± 0.14 | 
45 | VTIASEIYYDPDPRSTV [RPO21] | 2.41 ± 0.14 | 2.86 ± 0.14 |  | 2.52 ± 0.11
46 | PSKDSFTKYKPARSSSL [YAR002W/NUP60] | 2.15 ± 0.043 | 2.59 ± 0.044 | 2.44 ± 0.053 | 2.77 ± 0.04
47 | DIGKEMSLRHFGHLMHY [RPN1] | 1.26 ± 0.049 | 1.25 ± 0.041 | 1.23 ± 0.074 | 1.08 ± 0.037
48 | RKQIQLLKKIIFEKELM [SRB4] | 1.93 ± 0.051 | 2.14 ± 0.047 | 1.86 ± 0.071 | 2.03 ± 0.034
49 | LKLSMADYNGALLRVTK [POP4] | 2.82 ± 0.076 | 2.52 ± 0.05 | 2.61 ± 0.07 | 2.52 ± 0.053
50 | ESRAQNVFGQDNEDSDN [SWI3] | 3.24 ± 0.1 | 3.16 ± 0.075 | 3.33 ± 0.048 | 3.2 ± 0.052
